Reference: patent publication US20130142802A1

Legend:
[1] = target: native FGFR2-IIIc on rat prostate cancer cell line AT3B-1 (rat) (UniProt F1LNW0); test: flow cytometry on rat prostate cancer cell line AT3B-1; marker M1 9-7844, 1840 of 15000 events; the panel without primary antibody also prints 12.27
[2] = target: native FGFR2-IIIc on rat prostate cancer cell line AT3B-1 (rat) (UniProt F1LNW0); test: flow cytometry on AT3B-1 cells; no-primary control 11%

%Gated (marker M1) [1]: 12.3%
% positive staining of the cell population [2]: 12%
Substance: human IgG (negative control) (antibody)
